Reference: article doi:10.1101/2024.06.03.596960 (bioRxiv, 2024)
Values joined by “and” are separate entries in the source; they are usually repeats but may differ in a detail not shown here. Identical values can stand only once. One block for each molecule: values may come before it.

How the values were obtained:
[1] = target: BACH1 BTB domain (residues 7-128), wild type, tag-free (UniProt O14867); experiment: SEC-MALS
[2] = target: biotinylated ^AviSKP1-FBXO22(12-403) (UniProt P63208); experiment: BLI
Sequence of biotinylated ^AviSKP1-FBXO22(12-403) (P63208 2-163, chain 1 of 2): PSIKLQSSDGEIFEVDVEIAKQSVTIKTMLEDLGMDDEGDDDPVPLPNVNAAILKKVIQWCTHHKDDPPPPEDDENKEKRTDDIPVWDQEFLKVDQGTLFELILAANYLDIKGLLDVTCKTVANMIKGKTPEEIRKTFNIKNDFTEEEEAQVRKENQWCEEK
Sequence of biotinylated ^AviSKP1-FBXO22(12-403) (Q8NEZ5 12-403, chain 2 of 2, further chain): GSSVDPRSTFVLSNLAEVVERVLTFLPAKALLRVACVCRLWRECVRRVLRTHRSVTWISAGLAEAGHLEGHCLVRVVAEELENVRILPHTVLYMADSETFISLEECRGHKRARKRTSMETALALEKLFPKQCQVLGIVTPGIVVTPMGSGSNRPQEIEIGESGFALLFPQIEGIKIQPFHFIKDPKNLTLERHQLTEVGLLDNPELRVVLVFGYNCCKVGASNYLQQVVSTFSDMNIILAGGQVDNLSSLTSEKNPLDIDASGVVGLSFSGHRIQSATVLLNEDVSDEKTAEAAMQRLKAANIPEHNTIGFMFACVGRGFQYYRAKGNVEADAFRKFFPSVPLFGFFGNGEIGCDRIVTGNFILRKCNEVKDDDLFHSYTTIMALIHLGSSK

[3] = target: biotinylated ^AviSKP1-FBXO22(12-403) (UniProt P63208); experiment: SPR
[4] = target: BACH1^BTB A53V mutant (cancer-associated, TCGA) (UniProt O14867); experiment: SEC-MALS
BACH1^BTB E12R = BACH1^BTB E12R (UniProt O14867); experiment: SEC-MALS
BACH1^BTB F9A = BACH1^BTB F9A (UniProt O14867); experiment: SEC-MALS
BACH1^BTB S13A = BACH1^BTB S13A (UniProt O14867); experiment: SEC-MALS
BACH1^BTB S13D = BACH1^BTB S13D (UniProt O14867); experiment: SEC-MALS
BACH1^BTB Y11A = BACH1^BTB Y11A (UniProt O14867); experiment: SEC-MALS
BACH1^BTB Y11F = BACH1^BTB Y11F (UniProt O14867); experiment: SEC-MALS
[5] = target: BACH1^BTB Y11H mutant (cancer-associated, TCGA) (UniProt O14867); experiment: SEC-MALS
BTFA-modified BACH1^BTB = BTFA-modified BACH1^BTB (UniProt O14867)
[6] = target: BACH1 BTB domain (residues 7-128), wild type, tag-free (UniProt O14867); experiment: NMR titration
His10-TEV-BACH1^BTB = His10-TEV-BACH1^BTB (UniProt O14867); experiment: AlphaScreen or HTRF
mass photometry = target: the molecule itself; experiment: mass photometry
[7] = target: SKP1-FBXO22 heterodimer, wild type, tag-free (UniProt P63208); experiment: mass photometry
Sequence of SKP1-FBXO22 heterodimer, wild type, tag-free (UniProt P63208) (P63208 2-163, chain 1 of 2): as the sequence (P63208 2-163, chain 1 of 2) above
Sequence of SKP1-FBXO22 heterodimer, wild type, tag-free (UniProt P63208) (Q8NEZ5 12-403, chain 2 of 2, further chain): as the sequence (Q8NEZ5 12-403, chain 2 of 2, further chain) above

Molecule: BACH1 BTB domain (residues 7-128), wild type, tag-free (from UniProt O14867 7-128) (domain or fragment)
stoichiometry N [1]: 2
Kd [2]: 124 nM and 83.9 nM
Kd [3]: 57.7 nM

stoichiometry N [4]: 2
Molecule: BACH1^BTB A53V mutant (cancer-associated, TCGA) (from UniProt O14867 7-128) (domain or fragment)

Molecule: BACH1^BTB E12R (from UniProt O14867 7-128) (domain or fragment)
stoichiometry N (BACH1^BTB E12R): 2

Molecule: BACH1^BTB F9A (from UniProt O14867 7-128) (domain or fragment)
stoichiometry N (BACH1^BTB F9A): 2

Molecule: BACH1^BTB S13A (from UniProt O14867 7-128) (domain or fragment)
stoichiometry N (BACH1^BTB S13A): 2

Molecule: BACH1^BTB S13D (from UniProt O14867 7-128) (domain or fragment)
stoichiometry N (BACH1^BTB S13D): 2

Molecule: BACH1^BTB Y11A (from UniProt O14867 7-128) (domain or fragment)
stoichiometry N (BACH1^BTB Y11A): 2

Molecule: BACH1^BTB Y11F (from UniProt O14867 7-128) (domain or fragment)
stoichiometry N (BACH1^BTB Y11F): 2

stoichiometry N [5]: 2
Molecule: BACH1^BTB Y11H mutant (cancer-associated, TCGA) (from UniProt O14867 7-128) (domain or fragment)

stoichiometry N (BTFA-modified BACH1^BTB): 2
Molecule: BTFA-modified BACH1^BTB (from UniProt O14867 7-128) (domain or fragment)

Molecule: SKP1-FBXO22 heterodimer, wild type, tag-free (from UniProt P63208 2-163; Q8NEZ5 12-403) (complex)
stoichiometry N (equivalent SKP1-FBXO22) [6]: 1
IC50 (His10-TEV-BACH1^BTB): 495 nM

Kd [2]: 44.3 nM and 28.6 nM
koff [2]: 0.0021 s⁻¹
kon [2]: 470000 M⁻¹ s⁻¹
stoichiometry N (BACH1^FL per SKP1-FBXO22 heterodimer) [7]: 2
B1: full-length BACH1 (residues 2-736), tag-free (natural protein)
chain: SLSENSVFAYESSVHSTNVLLSLNDQRKKDVLCDVTIFVEGQRFRAHRSVLAACSSYFHSRIVGQADGELNITLPEEVTVKGFEPLIQFAYTAKLILSKENVDEVCKCVEFLSVHNIEESCFQFLKFKFLDSTADQQECPRKKCFSSHCQKTDLKLSLLDQRDLETDEVEEFLENKNVQTPQCKLRRYQGNAKASPPLQDSASQTYESMCLEKDAALALPSLCPKYRKFQKAFGTDRVRTGESSVKDIHASVQPNERSENECLGGVPECRDLQVMLKCDESKLAMEPEETKKDPASQCPTEKSEVTPFPHNSSIDPHGLYSLSLLHTYDQYGDLNFAGMQNTTVLTEKPLSGTDVQEKTFGESQDLPLKSDLGTREDSSVASSDRSSVEREVAEHLAKGFWSDICSTDTPCQMQLSPAVAKDGSEQISQKRSECPWLGIRISESPEPGQRTFTTLSSVNCPFISTLSTEGCSSNLEIGNDDYVSEPQQEPCPYACVISLGDDSETDTEGDSESCSAREQECEVKLPFNAQRIISLSRNDFQSLLKMHKLTPEQLDCIHDIRRRSKNRIAAQRCRKRKLDCIQNLESEIEKLQSEKESLLKERDHILSTLGETKQNLTGLCQKVCKEAALSQEQIQILAKYSAADCPLSFLISEKDKSTPDGELALPSIFSLSDRPPAVLPPCARGNSEPGYARGQESQQMSTATSEQAGPAEQCRQSGGISDFCQQMTDKCTTDE
stoichiometry N (mass photometry): 2
